Residue numbers refer to the chain shown, from its start.

Common to all, as to assay: MST; Monolith NT.115; 8.32 nM His-tagged DHS labelled with RED-tris-NTA, eIF5A titrated 0.00175-57.5 uM; 50 mM Tris, 200 mM NaCl, 5 mM beta-ME pH 8; free buffer
Settings in all cases: both partners purified

Assay [1] has as its target T1, deoxyhypusine synthase delY305_I306, patient-derived variant, His-tagged (human, UniProt P49366 1-369, delY305_I306).
T1 construct: deoxyhypusine synthase (DHS), Homo sapiens, UniProt P49366, residues 1-369, pathological variant lacking Y305 and I306; Primarily dimeric by mass photometry; also called DHS^delY305_I306; DHS^del305Y_306I; source: E. coli, purified from the soluble fraction; His-tagged protein labelled with RED-tris-NTA for MST; not shown: His6, N-terminal, kept
T1 sequence (looked up): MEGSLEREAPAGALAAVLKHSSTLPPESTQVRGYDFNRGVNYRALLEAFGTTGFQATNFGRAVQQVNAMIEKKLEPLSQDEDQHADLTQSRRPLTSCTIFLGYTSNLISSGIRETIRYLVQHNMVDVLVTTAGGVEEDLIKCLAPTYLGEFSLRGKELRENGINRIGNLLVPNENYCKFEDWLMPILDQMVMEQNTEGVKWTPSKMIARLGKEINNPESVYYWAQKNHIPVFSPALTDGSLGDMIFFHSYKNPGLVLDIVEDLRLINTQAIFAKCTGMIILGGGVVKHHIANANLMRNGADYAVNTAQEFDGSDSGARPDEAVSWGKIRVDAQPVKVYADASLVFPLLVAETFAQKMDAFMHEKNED

In assay [2] the target is T2, deoxyhypusine synthase, wild type, His-tagged (human, UniProt P49366 1-369).
T2 construct: deoxyhypusine synthase (DHS), Homo sapiens, UniProt P49366, residues 1-369; N-terminal 6xHis-tag followed by a TEV site (pET24d); tag kept for the His-tag labelling in MST; also called DHS; DHS^wt; source: E. coli, purified; His-tagged protein labelled with RED-tris-NTA for MST; not shown: His6, N-terminal, kept
T2 sequence (looked up): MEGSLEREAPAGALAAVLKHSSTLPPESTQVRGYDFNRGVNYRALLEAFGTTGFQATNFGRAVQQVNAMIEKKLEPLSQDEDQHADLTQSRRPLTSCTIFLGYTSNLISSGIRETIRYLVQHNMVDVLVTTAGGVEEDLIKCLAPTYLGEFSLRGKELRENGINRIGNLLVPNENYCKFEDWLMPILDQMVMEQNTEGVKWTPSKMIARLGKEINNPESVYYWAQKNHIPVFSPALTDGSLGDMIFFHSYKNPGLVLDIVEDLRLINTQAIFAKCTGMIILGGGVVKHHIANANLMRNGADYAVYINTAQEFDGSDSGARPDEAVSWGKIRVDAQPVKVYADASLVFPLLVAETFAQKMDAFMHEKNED

Assay [3] deals with T3, deoxyhypusine synthase K329A, His-tagged (human, UniProt P49366 1-369, K329A).
T3 construct: deoxyhypusine synthase (DHS), Homo sapiens, UniProt P49366, residues 1-369; also called DHS^K329A; source: E. coli, purified; His-tagged protein labelled with RED-tris-NTA for MST; not shown: His6, N-terminal, kept
T3 sequence (looked up): T2 sequence (looked up) with K329A

Assay [4] addresses T4, deoxyhypusine synthase H288A, His-tagged (human, UniProt P49366 1-369, H288A).
T4 construct: deoxyhypusine synthase (DHS), Homo sapiens, UniProt P49366, residues 1-369; source: E. coli, purified; His-tagged protein labelled with RED-tris-NTA for MST; not shown: His6, N-terminal, kept
T4 sequence (looked up): T2 sequence (looked up) with H288A

Assay [5] addresses T5, deoxyhypusine synthase W327A, His-tagged (human, UniProt P49366 1-369, W327A).
T5 construct: deoxyhypusine synthase (DHS), Homo sapiens, UniProt P49366, residues 1-369; source: E. coli, purified; His-tagged protein labelled with RED-tris-NTA for MST; not shown: His6, N-terminal, kept
T5 sequence (looked up): T2 sequence (looked up) with W327A

B1: eukaryotic translation factor 5A-1 (eIF5A-1), residues 15-151 (domain or fragment)
chain: not shown
notes: eIF5A1 (eukaryotic translation factor 5A-1), human, residues 15-151, from pET28-MHL (Addgene); The general purification removes the His tag with TEV; A His-tagged eIF5A1 was used only in the hypusination assay; source: E. coli, purified (HisTrap, TEV cleavage, reverse HisTrap, SEC); not shown: His tag, N-terminal, cleaved
As for B1, the Kd amounted to 80 ± 23.4 nM in assay [1]; 33.8 ± 8.5 nM in assay [2]; 129 ± 37.9 nM in assay [3]; 49.7 ± 28.7 nM in assay [4]; 602 ± 284 nM in assay [5].

One may read the Kd as the equilibrium constant for the complex coming apart.
